We go through one molecule from patent publication US20220334106, “CONJUGATE” (DENSO CORPORATION, published 2022).

This series addresses T1, alpha-amylase (UniProt P0DUB6 P0DUB6:16-511).
T1 sequence: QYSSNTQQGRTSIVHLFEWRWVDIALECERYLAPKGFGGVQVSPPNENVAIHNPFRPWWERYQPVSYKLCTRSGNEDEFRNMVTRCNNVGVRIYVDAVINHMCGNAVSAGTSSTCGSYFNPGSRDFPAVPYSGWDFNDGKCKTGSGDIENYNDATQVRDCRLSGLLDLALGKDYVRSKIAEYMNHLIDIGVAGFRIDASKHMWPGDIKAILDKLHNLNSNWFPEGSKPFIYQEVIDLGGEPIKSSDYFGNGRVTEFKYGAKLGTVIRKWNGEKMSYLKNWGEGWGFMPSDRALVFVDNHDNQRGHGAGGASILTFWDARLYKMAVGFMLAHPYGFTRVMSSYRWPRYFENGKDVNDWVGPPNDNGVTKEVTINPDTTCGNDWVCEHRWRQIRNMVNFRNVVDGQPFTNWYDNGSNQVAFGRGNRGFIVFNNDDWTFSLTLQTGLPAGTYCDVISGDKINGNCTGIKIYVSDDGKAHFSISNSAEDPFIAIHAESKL
The experiment in a line: ELONA. As to conditions: tags: Lee Biosolutions 120-17.

B1: DNA aptamer to SARS-CoV-2 spike RBD, alkaline phosphatase conjugate (ssDNA)
DNA: CAGCACCGACCTTGTGCTTTGGGAGTGCTGGTCCAAGGGCGTTAATGGACA
modifications: 5' biotin via C6 spacer
Regarding B1, the binding result was “no binding”.
